# Laboratory results from publication PMC12101541.
# Key:
# [1] = target: GGlFGGn-TgSkp1 (fully glycosylated TgSkp1, GalGlcFucGalGlcNAc glycan at Hyp154) (Toxoplasma gondii); experiment: AUC; sedimentation velocity, 50,000 rpm, 20 °C, 50 mM K phosphate (pH 7.4), 25 mM KCl (standard buffer); Sw isotherm fitted with a monomer-dimer self-association model (SedPhat); dimer to monomers
# [2] = target: TgSkp1-poly-Ser (TgSkp1 with the CTR replaced by poly-serine) (Toxoplasma gondii); experiment: as above
# [3] = target: TgSkp1ΔCTR (TgSkp1 lacking the C-terminal region) (Toxoplasma gondii); experiment: as above
# [4] = target: TgSkp1Δloop (TgSkp1 with the internal disordered loop replaced by GGSG) (Toxoplasma gondii); experiment: AUC; sedimentation velocity as in the standard experiment but with 600 mM KCl (high salt, ionic strength of 710 mM); Sw isotherm, monomer-dimer model; dimer to monomers
# [5] = target: TgSkp1Δloop (TgSkp1 with the internal disordered loop replaced by GGSG) (Toxoplasma gondii); experiment: AUC; sedimentation velocity, 50,000 rpm, 20 °C, 50 mM K phosphate (pH 7.4), 25 mM KCl (standard buffer); Sw isotherm fitted with a monomer-dimer self-association model (SedPhat); dimer to monomers
# [6] = target: TgSkp1ΔloopΔCTR (TgSkp1 with the internal loop replaced by GGSG and the CTR deleted) (Toxoplasma gondii); experiment: AUC; sedimentation velocity as in the standard experiment but with 600 mM KCl (high salt, ionic strength of 710 mM); Sw isotherm, monomer-dimer model; dimer to monomers
# [7] = target: TgSkp1ΔloopΔCTR (TgSkp1 with the internal loop replaced by GGSG and the CTR deleted) (Toxoplasma gondii); experiment: AUC; sedimentation velocity, 50,000 rpm, 20 °C, 50 mM K phosphate (pH 7.4), 25 mM KCl (standard buffer); Sw isotherm fitted with a monomer-dimer self-association model (SedPhat); dimer to monomers
# [8] = target: full-length TgSkp1 (Skp1 from Toxoplasma gondii), unmodified (Toxoplasma gondii); experiment: as above
substance,measurement,setting,value
"GGlFGGn-TgSkp1 (fully glycosylated TgSkp1, GalGlcFucGalGlcNAc glycan at Hyp154) (natural protein)",Kd,[1],400 nM
same,stoichiometry N,[1],2
TgSkp1-poly-Ser (TgSkp1 with the CTR replaced by poly-serine),Kd,[2],900 nM
same,stoichiometry N,[2],2
TgSkp1ΔCTR (TgSkp1 lacking the C-terminal region) (domain or fragment),Kd,[3],900 nM
same,stoichiometry N,[3],2
TgSkp1Δloop (TgSkp1 with the internal disordered loop replaced by GGSG) (natural protein),Kd,[4],8500 nM
same,Kd,[5],200 nM
same,stoichiometry N,[5],2
TgSkp1ΔloopΔCTR (TgSkp1 with the internal loop replaced by GGSG and the CTR deleted) (domain or fragment),Kd,[6],1900 nM
same,Kd,[7],2400 nM
same,stoichiometry N,[7],2
"full-length TgSkp1 (Skp1 from Toxoplasma gondii), unmodified (natural protein)",Kd,[8],50 nM
same,degree of dissociation at 300 nM,[8],18%
same,stoichiometry N,[8],2
